{"source": "paper PMC11589680", "about": "(Nature Communications, 2024)", "binders": {"B1": {"name": "GST-SNX17 (natural protein)", "chain": "MHFSIPETESRSGDSGGSAYVAYNIHVNGVLHCRVRYSQLLGLHEQLRKEYGANVLPAFPPKKLFSLTPAEVEQRREQLEKYMQAVRQDPLLGSSETFNSFLRRAQQETQQVPTEEVSLEVLLSNGQKVLVNVLTSDQTEDVLEAVAAKLDLPDDLIGYFSLFLVREKEDGAFSFVRKLQEFELPYVSVTSLRSQEYKIVLRKSYWDSAYDDDVMENRVGLNLLYAQTVSDIERGWILVTKEQHRQLKSLQEKVSKKEFLRLAQTLRHYGYLRFDACVADFPEKDCPVVVSAGNSELSLQLRLPGQQLREGSFRVTRMRCWRVTSSVPLPSGSTSSPGRGRGEVRLELAFEYLMSKDRLQWVTITSPQAIMMSICLQSMVDELMVKKSGGSIRKMLRRRVGGTLRRSDSQQAVKSPPLLESPDATRESMVKLSSKLSAVSLRGIGSPSTDASASDVHGNFAFEGIGDEDL"}, "B2": {"name": "untagged full-length SNX17 (natural protein)", "chain": "MHFSIPETESRSGDSGGSAYVAYNIHVNGVLHCRVRYSQLLGLHEQLRKEYGANVLPAFPPKKLFSLTPAEVEQRREQLEKYMQAVRQDPLLGSSETFNSFLRRAQQETQQVPTEEVSLEVLLSNGQKVLVNVLTSDQTEDVLEAVAAKLDLPDDLIGYFSLFLVREKEDGAFSFVRKLQEFELPYVSVTSLRSQEYKIVLRKSYWDSAYDDDVMENRVGLNLLYAQTVSDIERGWILVTKEQHRQLKSLQEKVSKKEFLRLAQTLRHYGYLRFDACVADFPEKDCPVVVSAGNSELSLQLRLPGQQLREGSFRVTRMRCWRVTSSVPLPSGSTSSPGRGRGEVRLELAFEYLMSKDRLQWVTITSPQAIMMSICLQSMVDELMVKKSGGSIRKMLRRRVGGTLRRSDSQQAVKSPPLLESPDATRESMVKLSSKLSAVSLRGIGSPSTDASASDVHGNFAFEGIGDEDL"}}, "key": {"[1]": {"molecular_target": "T1, Retriever complex (VPS35L, VPS26C, VPS29) (human, UniProt Q7Z3J2;O14972;Q9UBQ0-2)", "T1 sequence (Q7Z3J2 whole entry, chain 1 of 2)": "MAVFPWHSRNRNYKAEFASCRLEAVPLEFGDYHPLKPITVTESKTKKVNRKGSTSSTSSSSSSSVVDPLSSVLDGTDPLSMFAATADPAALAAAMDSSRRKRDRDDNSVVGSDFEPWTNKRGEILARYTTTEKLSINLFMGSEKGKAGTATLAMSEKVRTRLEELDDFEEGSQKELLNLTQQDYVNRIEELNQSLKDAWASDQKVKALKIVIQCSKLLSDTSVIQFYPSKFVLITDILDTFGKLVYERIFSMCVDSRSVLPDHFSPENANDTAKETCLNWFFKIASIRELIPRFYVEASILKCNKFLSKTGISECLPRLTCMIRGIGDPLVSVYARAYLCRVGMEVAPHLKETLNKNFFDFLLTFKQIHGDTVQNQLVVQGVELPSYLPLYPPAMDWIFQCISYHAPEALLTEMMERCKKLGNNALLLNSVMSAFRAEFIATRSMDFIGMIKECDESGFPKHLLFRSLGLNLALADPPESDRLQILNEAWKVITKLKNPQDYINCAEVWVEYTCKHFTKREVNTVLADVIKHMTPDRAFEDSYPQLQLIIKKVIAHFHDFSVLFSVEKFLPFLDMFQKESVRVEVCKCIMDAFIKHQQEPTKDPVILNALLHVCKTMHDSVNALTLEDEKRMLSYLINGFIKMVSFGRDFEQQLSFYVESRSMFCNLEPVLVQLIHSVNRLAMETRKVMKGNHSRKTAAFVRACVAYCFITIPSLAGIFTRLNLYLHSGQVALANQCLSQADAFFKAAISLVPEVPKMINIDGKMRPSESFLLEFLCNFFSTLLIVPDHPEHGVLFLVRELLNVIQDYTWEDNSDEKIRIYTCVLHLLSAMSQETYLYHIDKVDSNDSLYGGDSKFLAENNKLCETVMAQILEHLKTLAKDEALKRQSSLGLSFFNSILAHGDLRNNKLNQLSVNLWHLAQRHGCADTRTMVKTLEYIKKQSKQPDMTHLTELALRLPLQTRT", "T1 sequence (O14972 whole entry, chain 2 of 2)": "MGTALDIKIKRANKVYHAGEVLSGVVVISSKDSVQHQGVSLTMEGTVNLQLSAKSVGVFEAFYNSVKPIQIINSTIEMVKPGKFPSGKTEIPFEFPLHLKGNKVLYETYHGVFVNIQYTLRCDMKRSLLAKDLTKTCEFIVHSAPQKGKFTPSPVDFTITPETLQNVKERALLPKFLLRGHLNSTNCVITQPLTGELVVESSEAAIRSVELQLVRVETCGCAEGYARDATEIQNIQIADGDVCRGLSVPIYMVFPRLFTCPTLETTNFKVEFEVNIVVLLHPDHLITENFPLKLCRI", "experiment": "pull-down"}, "[2]": {"molecular_target": "T1, Retriever complex (VPS35L, VPS26C, …)", "experiment": "equilibrium pull-down"}}}
{"binder": "B1", "values": [{"measurement": "binding result", "setting": "[1]", "result": "binds"}]}
{"binder": "ASASDVHGNFAFEGIGDEDL", "note": "[GST-SNX17 CT (GST-tagged tail peptide, last 20 residues of SNX17)]", "values": [{"measurement": "Kd", "setting": "[2]", "result": "~110", "unit": "nM"}]}
{"binder": "ASASDVHGNFAFEGIGNEDL", "note": "[GST-SNX17 CT tail, −4 position to N]", "values": [{"measurement": "binding result", "setting": "[1]", "result": "binds"}]}
{"binder": "ASASDVHGNFAFEGIGQEDL", "note": "[GST-SNX17 CT tail, −4 position to Q]", "values": [{"measurement": "binding result", "setting": "[1]", "result": "binds"}]}
{"binder": "ASASDVHGNFAFEGLGDEDL", "note": "[GST-SNX17 CT tail, −6 position to L]", "values": [{"measurement": "binding result", "setting": "[1]", "result": "binds"}]}
{"binder": "ASASDVHGNFAFEGVGDEDL", "note": "[GST-SNX17 CT tail, −6 position to V]", "values": [{"measurement": "binding result", "setting": "[1]", "result": "binds"}]}
{"binder": "RYVYYGKNSEGNRFIRDDQL", "note": "[GST-tagged CT tail of LRMDA (last 20 amino acids)]", "values": [{"measurement": "binding result", "setting": "[1]", "result": "binds"}]}
{"binder": "SVYLVNFRCCRSHDLCNEDL", "note": "[GST-tagged CT tail of PATE1 (last 20 amino acids)]", "values": [{"measurement": "binding result", "setting": "[1]", "result": "binds"}]}
{"binder": "SKIKIAKDDCVFGNIKEEDL", "note": "[GST-tagged CT tail of SNX31 (last 20 amino acids)]", "values": [{"measurement": "binding result", "setting": "[1]", "result": "binds"}]}
{"binder": "B2", "values": [{"measurement": "binding result", "setting": "[1]", "result": "binds"}]}
